Experimental data published in PMC2927733.
Several values for one entry are separate records, joined by “and”; a condition that tells them apart may be missing. Equal values may be shown once.

Tests used:
[1] = biological target: PccB D422A (Streptomyces coelicolor); assay: crystal structure
[2] = biological target: PccB D422C (Streptomyces coelicolor); assay: SEC
[3] = biological target: PccB D422C (Streptomyces coelicolor); assay: crystal structure
[4] = biological target: PccB D422E (Streptomyces coelicolor); assay: SEC
[5] = biological target: PccB D422F (Streptomyces coelicolor); assay: SEC
[6] = biological target: PccB D422I (Streptomyces coelicolor); assay: SEC
[7] = biological target: PccB D422L (Streptomyces coelicolor); assay: SEC
[8] = biological target: PccB D422L (Streptomyces coelicolor); assay: crystal structure
[9] = biological target: PccB D422N (Streptomyces coelicolor); assay: SEC
[10] = biological target: PccB D422N (Streptomyces coelicolor); assay: crystal structure
[11] = biological target: PccB D422Q (Streptomyces coelicolor); assay: SEC
[12] = biological target: PccB D422V (Streptomyces coelicolor); assay: SEC
[13] = biological target: PccB D422V (Streptomyces coelicolor); assay: crystal structure
[14] = biological target: PccB D422Y (Streptomyces coelicolor); assay: SEC
[15] = biological target: PccB N80A (Streptomyces coelicolor); assay: SEC
[16] = biological target: PccB R456A (Streptomyces coelicolor); assay: SEC
[17] = biological target: PccB R456A/R457A (Streptomyces coelicolor); assay: SEC
[18] = biological target: wild type PccB, β subunit of propionyl-CoA carboxylase (PCC) of Streptomyces coelicolor (Streptomyces coelicolor); assay: SEC

Substance: PccB D422A (enzyme)
- stoichiometry N [1]: 6

Substance: PccB D422C (enzyme)
- stoichiometry N [2]: 6
- stoichiometry N [3]: 6

Substance: PccB D422E (enzyme)
- stoichiometry N [4]: 6

Substance: PccB D422F (enzyme)
- stoichiometry N [5]: 2 and 3

Substance: PccB D422I (enzyme)
- stoichiometry N [6]: 6

Substance: PccB D422L (enzyme)
- stoichiometry N [7]: 6
- stoichiometry N [8]: 6

Substance: PccB D422N (enzyme)
- stoichiometry N [9]: 6
- stoichiometry N [10]: 6

Substance: PccB D422Q (enzyme)
- stoichiometry N [11]: 2 and 3

Substance: PccB D422V (enzyme)
- stoichiometry N [12]: 6
- stoichiometry N [13]: 6

Substance: PccB D422Y (enzyme)
- stoichiometry N [14]: 6

Substance: PccB N80A (enzyme)
- ratio of dimer to hexamer (dimer:hexamer) [15]: 2
- stoichiometry N [15]: 2 and 6

Substance: PccB R456A (enzyme)
- ratio of dimer to hexamer (dimer:hexamer) [16]: 2.2
- stoichiometry N [16]: 2 and 6

Substance: PccB R456A/R457A (enzyme)
- ratio of dimer to hexamer (dimer:hexamer) [17]: 2.9
- stoichiometry N [17]: 2 and 6

Substance: wild type PccB, β subunit of propionyl-CoA carboxylase (PCC) of Streptomyces coelicolor (enzyme)
- stoichiometry N [18]: 6
